{
  "source": "paper PMC7367873",
  "about": "“Dissecting the sequence determinants for dephosphorylation by the catalytic subunits of phosphatases PP1 and PP2A” (Nature Communications, 2020)",
  "molecules": {"B1": {"name": "FAM83G (protein, UniProt A6ND36 2-823, looked up)", "Protein FAM83G": "AFSQVQCLDDNHVNWRSSESKPEFFYSEEQRLALEALVARGRDAFYEVLKRENIRDFLSELELKRILETIEVYDPGSEDPRGTGPSQGPEDNGVGDGEEASGADGVPIEAEPLPSLEYWPQKSDRSIPQLDLGWPDTIAYRGVTRASVYMQPPIDGQAHIKEVVRKMISQAQKVIAVVMDMFTDVDIFKDLLDAGFKRKVAVYIIVDESNVKYFLHMCERACMHLGHLKNLRVRSSGGTEFFTRSATKFKGALAQKFMFVDGDRAVCGSYSFTWSAARTDRNVISVLSGQVVEMFDRQFQELYLMSHSVSLKGIPMEKEPEPEPIVLPSVVPLVPAGTVAKKLVNPKYALVKAKSVDEIAKISSEKQEAKKPLGLKGPALAEHPGELPELLPPIHPGLLHLERANMFEYLPTWVEPDPEPGSDILGYINIIDPNIWNPQPSQMNRIKIRDTSQASAQHQLWKQSQDSRPRPEPCPPPEPSAPQDGVPAENGLPQGDPEPLPPVPKPRTVPVADVLARDSSDIGWVLELPKEEAPQNGTDHRLPRMAGPGHAPLQRQLSVTQDDPESLGVGLPNGLDGVEEEDDDDYVTLSDQDSHSGSSGRGPGPRRPSVASSVSEEYFEVREHSVPLRRRHSEQVANGPTPPPRRQLSAPHITRGTFVGPQGGSPWAQSRGREEADALKRMQAQRSTDKEAQGQQFHHHRVPASGTRDKDGFPGPPRYRSAADSVQSSTRNAGPAMAGPHHWQAKGGQVPRLLPDPGSPRLAQNARPMTDGRATEEHPSPFGIPYSKLSQSKHLKARTGGSQWASSDSKRRAQAPRDRKDP"}, "B2": {"name": "MTMR3 (protein, UniProt Q13615 1-1198, looked up)", "Phosphatidylinositol-3,5-bisph …": "MDEETRHSLECIQANQIFPRKQLIREDENLQVPFLELHGESTEFVGRAEDAIIALSNYRLHIKFKESLVNVPLQLIESVECRDIFQLHLTCKDCKVIRCQFSTFEQCQEWLKRLNNAIRPPAKIEDLFSFAYHAWCMEVYASEKEQHGDLCRPGEHVTSRFKNEVERMGFDMNNAWRISNINEKYKLCGSYPQELIVPAWITDKELESVSSFRSWKRIPAVIYRHQSNGAVIARCGQPEVSWWGWRNADDEHLVQSVAKACASDSRSSGSKLSTRNTSRDFPNGGDLSDVEFDSSLSNASGAESLAIQPQKLLILDARSYAAAVANRAKGGGCECPEYYPNCEVVFMGMANIHSIRRSFQSLRLLCTQMPDPGNWLSALESTKWLHHLSVLLKSALLVVHAVDQDQRPVLVHCSDGWDRTPQIVALAKLLLDPYYRTIEGFQVLVEMEWLDFGHKFADRCGHGENSDDLNERCPVFLQWLDCVHQLQRQFPCSFEFNEAFLVKLVQHTYSCLFGTFLCNNAKERGEKHTQERTCSVWSLLRAGNKAFKNLLYSSQSEAVLYPVCHVRNLMLWSAVYLPCPSPTTPVDDSCAPYPAPGTSPDDPPLSRLPKTRSYDNLTTACDNTVPLASRRCSDPSLNEKWQEHRRSLELSSLAGPGEDPLSADSLGKPTRVPGGAELSVAAGVAEGQMENILQEATKEESGVEEPAHRAGIEIQEGKEDPLLEKESRRKTPEASAIGLHQDPELGDAALRSHLDMSWPLFSQGISEQQSGLSVLLSSLQVPPRGEDSLEVPVEQFRIEEIAEGREEAVLPIPVDAKVGYGTSQSCSLLPSQVPFETRGPNVDSSTDMLVEDKVKSVSGPQGHHRSCLVNSGKDRLPQTMEPSPSETSLVERPQVGSVVHRTSLGSTLSLTRSPCALPLAECKEGLVCNGAPETENRASEQPPGLSTLQMYPTPNGHCANGEAGRSKDSLSRQLSAMSCSSAHLHSRNLHHKWLHSHSGRPSATSSPDQPSRSHLDDDGMSVYTDTIQQRLRQIESGHQQEVETLKKQVQELKSRLESQYLTSSLHFNGDFGDEVTSIPDSESNLDQNCLSRCSTEIFSEASWEQVDKQDTEMTRWLPDHLAAHCYACDSAFWLASRKHHCRNCGNVFCSSCCNQKVPVPSQQLFEPSRVCKSCYSSLHPTSSSIDLELDKPIAATSN"}, "B3": {"name": "PPP1R3D (protein, UniProt O95685 1-299, looked up)", "Protein phosphatase 1 …": "MSRGPSSAVLPSALGSRKLGPRSLSCLSDLDGGVALEPRACRPPGSPGRAPPPTPAPSGCDPRLRPIILRRARSLPSSPERRQKAAGAPGAACRPGCSQKLRVRFADALGLELAQVKVFNAGDDPSVPLHVLSRLAINSDLCCSSQDLEFTLHCLVPDFPPPVEAADFGERLQRQLVCLERVTCSDLGISGTVRVCNVAFEKQVAVRYTFSGWRSTHEAVARWRGPAGPEGTEDVFTFGFPVPPFLLELGSRVHFAVRYQVAGAEYWDNNDHRDYSLTCRNHALHMPRGECEESWIHFI"}, "B4": {"name": "KIF23 (protein, UniProt Q02241 1-960, looked up)", "Kinesin-like protein KIF23": "MKSARAKTPRKPTVKKGSQTNLKDPVGVYCRVRPLGFPDQECCIEVINNTTVQLHTPEGYRLNRNGDYKETQYSFKQVFGTHTTQKELFDVVANPLVNDLIHGKNGLLFTYGVTGSGKTHTMTGSPGEGGLLPRCLDMIFNSIGSFQAKRYVFKSNDRNSMDIQCEVDALLERQKREAMPNPKTSSSKRQVDPEFADMITVQEFCKAEEVDEDSVYGVFVSYIEIYNNYIYDLLEEVPFDPIKPKPPQSKLLREDKNHNMYVAGCTEVEVKSTEEAFEVFWRGQKKRRIANTHLNRESSRSHSVFNIKLVQAPLDADGDNVLQEKEQITISQLSLVDLAGSERTNRTRAEGNRLREAGNINQSLMTLRTCMDVLRENQMYGTNKMVPYRDSKLTHLFKNYFDGEGKVRMIVCVNPKAEDYEENLQVMRFAEVTQEVEVARPVDKAICGLTPGRRYRNQPRGPVGNEPLVTDVVLQSFPPLPSCEILDINDEQTLPRLIEALEKRHNLRQMMIDEFNKQSNAFKALLQEFDNAVLSKENHMQGKLNEKEKMISGQKLEIERLEKKNKTLEYKIEILEKTTTIYEEDKRNLQQELETQNQKLQRQFSDKRRLEARLQGMVTETTMKWEKECERRVAAKQLEMQNKLWVKDEKLKQLKAIVTEPKTEKPERPSRERDREKVTQRSVSPSPVPLSSNYIAQISNGQQLMSQPQLHRRSNSCSSISVASCISEWEQKIPTYNTPLKVTSIARRRQQEPGQSKTCIVSDRRRGMYWTEGREVVPTFRNEIEIEEDHCGRLLFQPDQNAPPIRLRHRRSRSAGDRWVDHKPASNMQTETVMQPHVPHAITVSVANEKALAKCEKYMLTHQELASDGEIETKLIKGDIYKTRGGGQSVQFTDIETLKQESPNGSRKRRSSTVAPAQPDGAESEWTDVETRCSVAVEMRAGSQLGPGYQHHAQPKRKKP"}, "B5": {"name": "CDC25B (protein, UniProt P30305 1-580, looked up)", "M-phase inducer phosphatase 2": "MEVPQPEPAPGSALSPAGVCGGAQRPGHLPGLLLGSHGLLGSPVRAAASSPVTTLTQTMHDLAGLGSETPKSQVGTLLFRSRSRLTHLSLSRRASESSLSSESSESSDAGLCMDSPSPMDPHMAEQTFEQAIQAASRIIRNEQFAIRRFQSMPVRLLGHSPVLRNITNSQAPDGRRKSEAGSGAASSSGEDKENDGFVFKMPWKPTHPSSTHALAEWASRREAFAQRPSSAPDLMCLSPDRKMEVEELSPLALGRFSLTPAEGDTEEDDGFVDILESDLKDDDAVPPGMESLISAPLVKTLEKEEEKDLVMYSKCQRLFRSPSMPCSVIRPILKRLERPQDRDTPVQNKRRRSVTPPEEQQEAEEPKARVLRSKSLCHDEIENLLDSDHRELIGDYSKAFLLQTVDGKHQDLKYISPETMVALLTGKFSNIVDKFVIVDCRYPYEYEGGHIKTAVNLPLERDAESFLLKSPIAPCSLDKRVILIFHCEFSSERGPRMCRFIRERDRAVNDYPSLYYPEMYILKGGYKEFFPQHPNFCEPQDYRPMNHEAFKDELKTFRLKTRSWAGERSRRELCSRLQDQ"}, "B6": {"name": "TP53BP2 (protein, UniProt Q13625 1-1128, looked up)", "Apoptosis-stimulating of p53 …": "MMPMFLTVYLSNNEQHFTEVPVTPETICRDVVDLCKEPGESDCHLAEVWCGSERPVADNERMFDVLQRFGSQRNEVRFFLRHERPPGRDIVSGPRSQDPSLKRNGVKVPGEYRRKENGVNSPRMDLTLAELQEMASRQQQQIEAQQQLLATKEQRLKFLKQQDQRQQQQVAEQEKLKRLKEIAENQEAKLKKVRALKGHVEQKRLSNGKLVEEIEQMNNLFQQKQRELVLAVSKVEELTRQLEMLKNGRIDSHHDNQSAVAELDRLYKELQLRNKLNQEQNAKLQQQRECLNKRNSEVAVMDKRVNELRDRLWKKKAALQQKENLPVSSDGNLPQQAASAPSRVAAVGPYIQSSTMPRMPSRPELLVKPALPDGSLVIQASEGPMKIQTLPNMRSGAASQTKGSKIHPVGPDWSPSNADLFPSQGSASVPQSTGNALDQVDDGEVPLREKEKKVRPFSMFDAVDQSNAPPSFGTLRKNQSSEDILRDAQVANKNVAKVPPPVPTKPKQINLPYFGQTNQPPSDIKPDGSSQQLSTVVPSMGTKPKPAGQQPRVLLSPSIPSVGQDQTLSPGSKQESPPAAAVRPFTPQPSKDTLLPPFRKPQTVAASSIYSMYTQQQAPGKNFQQAVQSALTKTHTRGPHFSSVYGKPVIAAAQNQQQHPENIYSNSQGKPGSPEPETEPVSSVQENHENERIPRPLSPTKLLPFLSNPYRNQSDADLEALRKKLSNAPRPLKKRSSITEPEGPNGPNIQKLLYQRTTIAAMETISVPSYPSKSASVTASSESPVEIQNPYLHVEPEKEVVSLVPESLSPEDVGNASTENSDMPAPSPGLDYEPEGVPDNSPNLQNNPEEPNPEAPHVLDVYLEEYPPYPPPPYPSGEPEGPGEDSVSMRPPEITGQVSLPPGKRTNLRKTGSERIAHGMRVKFNPLALLLDSSLEGEFDLVQRIIYEVDDPSLPNDEGITALHNAVCAGHTEIVKFLVQFGVNVNAADSDGWTPLHCAASCNNVQVCKFLVESGAAVFAMTYSDMQTAADKCEEMEEGYTQCSQFLYGVQEKMGIMNKGVIYALWDYEPQNDDELPMKEGDCMTIIHREDEDEIEWWWARLNDKEGYVPRNLLGLYPRIKPRQRSLA"}},
  "data": [
    {"test_system": "GFP-14-3-3β and its binding proteins", "test": "GFP-14-3-3β co-IP with LC-MS/MS label-free quantification, untreated versus PP1c-treated", "parameters": "species or system human", "settings": "GFP-14-3-3β co-IP, PP1vsUntrted, Perseus raw output, LFQ intensity difference", "values": [
      {"molecule": "B1", "Difference": -4.783}
    ]},
    {"test_system": "GFP-14-3-3β and its binding proteins", "test": "GFP-14-3-3β co-IP with LC-MS/MS label-free quantification, untreated versus PP1c-treated", "parameters": "species or system human", "settings": "pairwise comparison PP1 vs untreated, student's t-test; 3 replicates each; LC-MS/MS label-free quantification", "units": {"Difference (log2), PP1 vs untreated": "log2"}, "values": [
      {"molecule": "B2", "Difference (log2), PP1 vs untreated": -4.593},
      {"molecule": "B3", "Difference (log2), PP1 vs untreated": -4.778},
      {"molecule": "B4", "Difference (log2), PP1 vs untreated": -4.537},
      {"molecule": "B1", "Difference (log2), PP1 vs untreated": -4.783},
      {"molecule": "B5", "Difference (log2), PP1 vs untreated": -5.046},
      {"molecule": "B6", "Difference (log2), PP1 vs untreated": -4.694}
    ]},
    {"test_system": "GFP-14-3-3β", "test": "GFP-14-3-3β co-IP with LC-MS/MS, untreated GFP-14-3-3β versus GFP control (14-3-3 interactome)", "type": "binding, human", "settings": "pairwise comparison untreated GFP-14-3-3β vs GFP, student's t-test; 3 replicates each; LC-MS/MS label-free quantification", "units": {"Difference (log2), untreated vs GFP": "log2"}, "values": [
      {"molecule": "B2", "Difference (log2), untreated vs GFP": 4.385},
      {"molecule": "B3", "Difference (log2), untreated vs GFP": 3.78},
      {"molecule": "B4", "Difference (log2), untreated vs GFP": 6.386},
      {"molecule": "B1", "Difference (log2), untreated vs GFP": 4.695},
      {"molecule": "B5", "Difference (log2), untreated vs GFP": 4.101},
      {"molecule": "B6", "Difference (log2), untreated vs GFP": 3.807}
    ]}
  ]
}
